Numbering of substitutions follows the chain as printed.
B1: Mutation 4 (antibody, mouse IgG2b, kappa, V domains shown)
VH: QVQLQQPGAELVRPGASVKLSCKASGSSFTNYFMNWVKQRPGQGLEWIGMIHPSESETRINQKFKDKATLTVDKSSSTAYMQLSSLTAEDSAVYYCAKSGDFYTSYWDYWGQGTTLTVSS
VL: DIQLTQSPASLSASVGETVTITCRGSGNLHNYIAWYQQKQGKSPQLLVYNARTIADGVPSRFSGSGSGTQYSLKINSLQPEDFGSYYCQSFWSTYTFGGGTKLEIKR
B2: Mutation 1 (antibody, mouse IgG2b, kappa, V domains shown)
VH: B1 VH with F33W, W107F
VL: B1 VL with I33L
B3: anti-Pan-PLDH 9G7 monoclonal antibody (antibody, mouse IgG2b, kappa, V domains shown)
VH: B1 VH with H52N
VL: B1 VL with T94S
B4: Mutation 2 (antibody, mouse IgG2b, kappa, V domains shown)
VH: B1 VH with W107F
VL: B1 VL with I33L, T94S

target: Pan-species-specific antigen Plasmodium Lactate DeHydrogenase (Pan-PLDH) protein; assay: indirect ELISA, recombinant MA protein coated 1 ug/ml, antibody 200 ng/ml

| OD value at 450 nm (refer to 630 nm) | Binder |
| --- | --- |
| 2.03 OD | B1 |
| 2.19 OD | B2 |
| 1.82 OD | B3 |
| 2.14 OD | B4 |

target: Pan-species-specific antigen Plasmodium Lactate DeHydrogenase (Pan-PLDH) protein; assay: indirect ELISA, recombinant MA protein coated 1 ug/ml, antibody 0 ng/ml (blank)

| OD value at 450 nm (refer to 630 nm) | Binder |
| --- | --- |
| 0.066 OD | B1 |
| 0.06 OD | B2 |
| 0.072 OD | B3 |
| 0.072 OD | B4 |

target: Pan-species-specific antigen Plasmodium Lactate DeHydrogenase (Pan-PLDH) protein; assay: indirect ELISA, recombinant MA protein coated 1 ug/ml, antibody 1000 ng/ml

| OD value at 450 nm (refer to 630 nm) | Binder |
| --- | --- |
| 2.15 OD | B1 |
| 2.26 OD | B2 |
| 1.94 OD | B3 |
| 2.21 OD | B4 |

target: Pan-species-specific antigen Plasmodium Lactate DeHydrogenase (Pan-PLDH) protein; assay: indirect ELISA, recombinant MA protein coated 1 ug/ml, antibody 1.6 ng/ml

| OD value at 450 nm (refer to 630 nm) | Binder |
| --- | --- |
| 0.251 OD | B1 |
| 0.339 OD | B2 |
| 0.205 OD | B3 |
| 0.297 OD | B4 |

target: Pan-species-specific antigen Plasmodium Lactate DeHydrogenase (Pan-PLDH) protein; assay: indirect ELISA at four coating concentrations, KD calculated from half-maximal OD

| Kd | Binder |
| --- | --- |
| 0.412 nM | B2 |
| 0.887 nM | B3 |

target: Pan-species-specific antigen Plasmodium Lactate DeHydrogenase (Pan-PLDH) protein; assay: indirect ELISA, recombinant MA protein coated 1 ug/ml, antibody 0.32 ng/ml

| OD value at 450 nm (refer to 630 nm) | Binder |
| --- | --- |
| 0.211 OD | B1 |
| 0.27 OD | B2 |
| 0.173 OD | B3 |
| 0.231 OD | B4 |

target: Pan-species-specific antigen Plasmodium Lactate DeHydrogenase (Pan-PLDH) protein; assay: indirect ELISA, recombinant MA protein coated 1 ug/ml, antibody 40 ng/ml

| OD value at 450 nm (refer to 630 nm) | Binder |
| --- | --- |
| 1.92 OD | B1 |
| 2.02 OD | B2 |
| 1.43 OD | B3 |
| 1.98 OD | B4 |

target: Pan-species-specific antigen Plasmodium Lactate DeHydrogenase (Pan-PLDH) protein; assay: indirect ELISA, recombinant MA protein coated 1 ug/ml, antibody 8 ng/ml

| OD value at 450 nm (refer to 630 nm) | Binder |
| --- | --- |
| 0.939 OD | B1 |
| 1.1 OD | B2 |
| 0.635 OD | B3 |
| 1 OD | B4 |

From patent US20210395394A1
